{"source": "patent US20090170718", "molecular_target": "Botulinum neurotoxin type A light chain (BoNT/A-rLc) (UniProt P0DPI1)"}
{"sequence": "AGCAGCACAGAGGTCAGATGNNNNNNNNNNNNNNNNNNNNNNNNNNNNNNNNNNNNNNNNNNNNNNNNNNNNNNNNNNNNCCTATGCGTGCTACCGTGAA [round 1 enriched aptamer pool (M-SELEX)]", "values": [{"measurement": "Kd", "value": 33, "unit": "nM"}]}
